The chains are these.
T1: IL-18R1 ECD-His (human)
T1 chain: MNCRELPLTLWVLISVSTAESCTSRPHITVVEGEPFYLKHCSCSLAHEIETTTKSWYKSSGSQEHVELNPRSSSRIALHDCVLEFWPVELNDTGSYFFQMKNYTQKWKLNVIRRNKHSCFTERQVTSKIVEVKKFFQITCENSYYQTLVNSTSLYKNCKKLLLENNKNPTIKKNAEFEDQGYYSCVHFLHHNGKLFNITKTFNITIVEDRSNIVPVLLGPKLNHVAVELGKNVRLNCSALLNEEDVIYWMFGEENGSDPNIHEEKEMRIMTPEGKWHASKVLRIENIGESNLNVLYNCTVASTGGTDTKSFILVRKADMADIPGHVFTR

T2: IL-18RAP ECD-His (human)
T2 chain: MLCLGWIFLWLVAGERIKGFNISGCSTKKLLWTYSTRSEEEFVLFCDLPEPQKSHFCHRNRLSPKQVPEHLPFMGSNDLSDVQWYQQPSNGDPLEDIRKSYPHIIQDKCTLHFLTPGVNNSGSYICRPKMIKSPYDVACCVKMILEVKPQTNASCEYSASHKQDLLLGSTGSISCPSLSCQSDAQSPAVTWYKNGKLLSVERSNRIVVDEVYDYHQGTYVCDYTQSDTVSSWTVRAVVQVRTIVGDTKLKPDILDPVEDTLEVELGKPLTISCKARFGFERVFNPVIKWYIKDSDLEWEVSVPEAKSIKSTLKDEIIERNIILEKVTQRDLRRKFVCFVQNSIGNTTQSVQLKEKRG

B1: R1-C10-hFc (antibody, V domains shown)
VH: QVQLQESGGGSVQAGETLRLSCTASGSTFDEYDMGWYRQAPGNKCELVSTISTIDGSTYYADSVKGRFTISQDNTKNTVYLQMNSLKPEDTGVYYCEADDRGTWDRGGCWGQGTQVTVSS
B2: R1-C7-hFc (antibody, V domains shown)
VH: QVQLQESGGGPVQAEGSLRLSCTASGNLYRDPCMGWFRQAPGKDREGVAAMNTGADSTFYARSVKGRFTISHDNAKNTLYLQMNSVKPEDTAMYYCAASRYCTERTWTWRYDYDYWGQGTQVTVSS
B3: hzR1-C10-hFc (antibody, V domains shown)
VH: EVQLVESGGGLVQPGGSLRLSCAASGSTFDEYDMGWYRQAPGGKCELVSTISTIDASTYYADSVKGRFTISRDNSKNTLYLQMNSLRAEDTAVYYCEADDRGTWDRGGCWGQGTLVTVSS
B4: hzR1-A12-hFc (antibody, V domains shown)
VH: EVQLVESGGGLVQPGGSLRLSCAASGTAYDNACMGWFRQAPGKEREGVASIHLRDRTYYADSVKGRFTISRDNSKNTLYLQMNSLRAEDTAVYYCASSNICNALNLQGNTYWGQGTLVTVSS
B5: R1-F9-hFc (antibody, V domains shown)
VH: QVQLQESGGGSVQAGETLRLSCTASGFTVHDMGWYRQAPGNECELVSTISSDGSTYYADSVKGRFTISQDNAKNTVYLQMNSLKPEDTAVYYCAADHFTGLQLAECKADFGYWGQGTQVTVSS
B6: R1-A12-hFc (antibody, V domains shown)
VH: QVQLQESGGGPVQAGGSLRLSCSASTTAYDNACMGWFRQAPGKEREGVASIHLRDRTYYADSVKGRFTLSRDGASKTLYLQMNSLKPEDSGTYYCASSNICNGLNLQGNTYWGQGTQVTVSS
B7: hzR1-F9-hFc (antibody, V domains shown)
VH: EVQLVESGGGLVQPGGSLRLSCAASGFTVHDMGWYRQAPGKECELVSTISSDASTYYADSVKGRFTISRDNAKNTLYLQMNSLRAEDTAVYYCAADSFTGLQLAECKADFGYWGQGTLVTVSS
B8: hzR1-C7-hFc (antibody, V domains shown)
VH: EVQLVESGGGLVQPGGSLRLSCAASGNLYRDPCMGWFRQAPGKDREGVAAMNTGADSTFYARSVKGRFTISRDNAKNTLYLQMNSLRAEDTAVYYCAASRYCTERTYTWRYDYDYWGQGTLVTVSS
B9: hzRap-F11-hFc (antibody, V domains shown)
VH: EVQLVESGGGLVQPGGSLRLSCAASGFTYIPAYMGWFRQAPGKERERVASIKTDASTTYADSVEGRFTISQDNAKNTLYLQMNSLRPEDTAVYYCAAYQFGAFRVWGQGTLVTVSS
B10: Rap-F11-hFc (antibody, V domains shown)
VH: QVQLQESGGGSVQPGGSLRLSCAASGFTYIPAYMGWFRQAPGKERERVASIKTDGSTTYADSVNGRFTIAQDTAKNTLYLQMDSLKPEDTAMYYCAAYQFGAFRVWGQGTQVTVSS
B11: Rap-C10-hFc (antibody, V domains shown)
VH: QVQLQESGGGSVQPGGSLRLSCAASGFTYIPAYMGWFRQAPGKERERVASISSTDGSTTYADSVKGRFTVSQDTAKNTLYLQMNSLKPEDTAMYYCAAYQFGAFRVWGQGTQVTVSS
B12: hzRap-C10-hFc (antibody, V domains shown)
VH: EVQLVESGGGLVQPGGSLRLSCAASGFTYIPAYMGWFRQAPGKERERVASISSTEGSTTYADSVKGRFTISQDNSKNTLYLQMNSLRPEDTAVYYCAAYQFGAFRVWGQGTLVTVSS
B13: hzRap-A10-hFc (designed binder)
chain: EVQLLESGGGLVQPGGSLRLSCAASGYTYGPYCMGWFRQAPGKEREGVAAVGGDARTWYGNSVKGRFTISRDNSKNTLYLQMNSLRAEDTAVYYCAADFDRTVCSDDIYDYTYRGQGTLVTVSS
B14: Rap-A10-hFc (designed binder)
chain: QVQLQESGGGLVQAGGSLKLSCAASGYTYGPYCMGWFRQFPGKEREGVAAVGGDGRTWYGNSVKGRFTISQDNAKKTLYLQINALKPEDTAMYYCAADFDRTVCSDDIYDYTYRGQGTQVTVSS

One test addresses T1, IL-18R1 ECD-His. The test can be described thus: BLI. In general terms: Biolayer interferometry detects binding as a change in optical thickness at a sensor tip.
With B1, the dissociation constant Kd was 0.0281 nM.
Same read-out and setting: next, B2: 2.56 nM; B3: 1.45 nM.
The same measure, in the same setting: the same measure for B4: 2 nM; for B5: 1.1 nM; for B6: 2.82 nM.
Molecule B7 came in with a Kd of 3.74 nM.
On the same count and under the same terms, next, B8: 2.53 nM.

The next test deals with T2, IL-18RAP ECD-His. The test can be described thus: BLI.
The molecule B9 displayed a Kd of 4.85 nM.
Same read-out and setting: next, B10: 4.58 nM; B11: 1.73 nM; B12: 6.24 nM.
The same measure, in the same setting: the same measure for B13: 0.986 nM.
B14 yielded a Kd of 0.53 nM.

A word on the Kd: it is a measure of binding affinity in units of concentration. A low value points to a tighter complex.
